T1: murine IL-38 (Mus musculus, UniProt Q8R459)
T1 construct: purchased AdipoGen AG-40B-0101-C010
T1 sequence (Q8R459 1-152): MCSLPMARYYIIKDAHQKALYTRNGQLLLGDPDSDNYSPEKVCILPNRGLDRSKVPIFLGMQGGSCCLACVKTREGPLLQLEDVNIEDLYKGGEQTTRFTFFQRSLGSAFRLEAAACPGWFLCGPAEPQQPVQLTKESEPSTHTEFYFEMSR


Tests used:
cDC1 = cDC1 migration, Boyden chamber assay; format: cell-based, mouse; conditions: supernatants of γδ T cells pretreated with IL-38, 2 hours
Method: Boyden chamber assays were performed using a 96 well-plate with 4.26 mm transwell inserts with 5.0 µm pore polycarbonate membrane (Corning). Briefly, 1.4×10^4 DC-enriched murine splenocytes (EasySep Mouse Pan-DC Enrichment Kit II, STEMCELL Technologies) were suspended in serum-free RPMI 1640 medium and added to transwell inserts. Supernatants collected after 24 hours of γδ T cells stimulation (described above) were pre-incubated with either 15 µg/mL IgG isotype control (R&D Systems) or 15 µg/mL anti-Xcl1 (R&D Systems) and added to the bottom compartment. Cells were harvested 2 hours later and migrated and non-migrated cells were analyzed by FACS. The percentage of migrated cDC1 was determined by the ratio of migrated/non-migrated cells.

splenic γδ T cells = assay: γδ T cell / CD8+ T cell culture with recombinant IL-38; format: cell-based, mouse; conditions: 100 ng/mL daily, day 5, cytometric bead array
Method: γδ T cells and CD8+ T cells were isolated from murine spleens by fluorescence-activated cell sorting (FACS) and co-cultured at a ratio of 1:10. The cells were cultured in T-cell medium Roswell Park Memorial Institute (RPMI) 1640 with 5 mM glutamine, 100 U/mL penicillin, 100 µg/mL streptomycin, 10% heat-inactivated fetal calf serum (FCS), 1% non-essential and essential amino acids, 1% sodium pyruvate and 1% 4-(2-hydroxyethyl)-1-piperazineethanesulfonic acid (HEPES) followed by activation with mouse T-cell activator CD3/CD28 Dynabeads (Thermo Fisher Scientific), 10 ng/mL of recombinant murine (rm) IL-23 and rm IL-1β (both from Bio-Techne). Cells were supplemented with 10 ng/mL rm IL-2 (PrepoTech) at days 0, 2 and 5 and daily with 100 ng/mL rm IL-38 (AdipoGen) and 50 μM β-mercaptoethanol. Cells were cultured for up to 5 days. At the endpoint, supernatants were collected for cytokine determination and cell proliferation was analyzed by flow cytometry.
To measure the cytokines in PyMT tumors and cell culture supernatants, Cytometric Bead Array Flex Sets (BD Biosciences) were used for murine IL-17A and IFN-γ. The samples were acquired via FACS and analyzed with FlowJo Software V.10 (Tree Star).

γδ T cells = assay: Xcl1 production by activated γδ T cells (ELISA); format: cell-based, mouse; conditions: 100 ng/mL, 24 hours
Method: γδ T cells isolated from murine spleen were cultured in T-cell medium, activated with mouse T-cell activator CD3/CD28 Dynabeads (Thermo Fisher Scientific), except for the negative control, and supplemented with 10 ng/mL rm IL-2 (PrepoTech), 100 ng/mL rm IL-38 (AdipoGen) and […] β-mercaptoethanol. Supernatants were collected 24 hours after seeding for the determination of Xcl1 levels.
Xcl1 levels were determined from supernatants collected from γδ T-cell cultures using Mouse Xcl1/Lymphotactin DuoSet ELISA Kit (R&D Systems) according to the manufacturer’s instructions.

murine IL-38 = target: T1, murine IL-38; assay: Neutralization of IL-38 effect on IL-17 production by splenic γδ T cells; format: cell-based; conditions: γδ T cells on anti-CD3 plates, IL-1 and IL-23 + IL-38 and Fab, supernatants after 5 days
Method: Figure 2 IL-38 neutralization slows down tumor development and increases T-cell infiltrates into tumors. (A) Kinetic analysis and dissociation constants (Kd) of Fabs e04 and h06 selected by phage display binding to mouse IL-38 determined by biolayer interferometry. (B) Mouse splenic γδ T cells were seeded on anti-CD3 coated plates and treated with IL-1 and IL-23 + IL-38 and Fab fragments putatively recognizing […] murine IL-38. IL-17 levels in supernatants were analyzed after 5 days. Unrelated Fab fragments c05 and d09 were used as negative controls. Data are from four independent experiments. (C) SDS-PAGE analysis of purified e04 IgG. (D) Binding profile of e04 IgG and mouse IL-38 determined by biolayer interferometry. (E) Crystal structure of Fab E04 binding to recombinant IL-38. […] (F) Tumor growth was monitored when the first tumor reached 0.6 cm in diameter. […] (I) The overall immune cell profile (n=6), (J) γδ T-cell subsets (n=5–6) and (K) intracellularly produced cytokines (n=10–11) were determined by flow cytometry after 5 weeks of treatment. (L) Representative images of PyMT tumors stained for CD8, CD4 and CD3 and (M) quantification of indicated cells is shown. […] Data are shown as means±SEM. *p<0.05, **p<0.01, ***p<0.001; p values were calculated using unpaired multiple t-tests with FDR correction. […]

| Molecule | cDC1 migration towards γδ T-cell supernatants (cDC1) | IFN-γ secretion in γδ T cell / CD8+ T cell co-culture (splenic γδ T cells) | IL-17 production by splenic γδ T cells (splenic γδ T cells) | Xcl1 levels on γδ TCR-dependent activation (γδ T cells) | Effect on IL-38 inhibition of IL-17 production by γδ T cells (murine IL-38) |
| --- | --- | --- | --- | --- | --- |
| recombinant IL-38: recombinant murine IL-38 (AdipoGen) (protein) MCSLPMARYYIIKDAHQKALYTRNGQLLLGDPDSDNYSPEKVCILPNRGLDRSKVPIFLGMQGGSCCLACVKTREGPLLQLEDVNIEDLYKGGEQTTRFTFFQRSLGSAFRLEAAACPGWFLCGPAEPQQPVQLTKESEPSTHTEFYFEMSR | reduced | limited the secretion of IFN-γ | effectively suppressed IL-17 production | suppressed | – |
| Fab e04: Fab fragment selected by phage display from a synthetic Fab-phage library, binds murine IL-38 (antibody, V domains shown) VH: EVQLVESGGGLVQPGGSLRLSCAASGFSFSSSSIHWVRQAPGKGLEWVASISPYYSYTSYADSVKGRFTISADTSKNTAYLQMNSLRAEDTAVYYCARTVRGSKKPYFSGWAMDYWGQGTLVTVSS VL: DIQMTQSPSSLSASVGDRVTITCRASQSYYSYVAWYQQKPGKAPKLLIYSASSLYSGVPSRFSGSRSGTDFTLTISSLQPEDFATYYCQQVFAPITFGQGTKVEIK | – | – | – | – | neutralized the inhibitory effect of IL-38 on IL-17 production by γδ T cells |

Source: article PMC11367332, “Neutralizing IL-38 activates γδ T cell-dependent antitumor immunity and sensitizes for chemotherapy” (Journal for Immunotherapy of Cancer, 2024)
